Patent CN117466995A (YIDAO BIOTECHNOLOGY SUZHOU CO LTD, dated 2024)
Where “and” joins values, the source holds several entries; their conditions need not be identical. Equal values may be shown once.

T1: HPV45型衣壳蛋白L1病毒样颗粒(VLP)抗原 (HPV 45型) (UniProt P36741)
T1 sequence: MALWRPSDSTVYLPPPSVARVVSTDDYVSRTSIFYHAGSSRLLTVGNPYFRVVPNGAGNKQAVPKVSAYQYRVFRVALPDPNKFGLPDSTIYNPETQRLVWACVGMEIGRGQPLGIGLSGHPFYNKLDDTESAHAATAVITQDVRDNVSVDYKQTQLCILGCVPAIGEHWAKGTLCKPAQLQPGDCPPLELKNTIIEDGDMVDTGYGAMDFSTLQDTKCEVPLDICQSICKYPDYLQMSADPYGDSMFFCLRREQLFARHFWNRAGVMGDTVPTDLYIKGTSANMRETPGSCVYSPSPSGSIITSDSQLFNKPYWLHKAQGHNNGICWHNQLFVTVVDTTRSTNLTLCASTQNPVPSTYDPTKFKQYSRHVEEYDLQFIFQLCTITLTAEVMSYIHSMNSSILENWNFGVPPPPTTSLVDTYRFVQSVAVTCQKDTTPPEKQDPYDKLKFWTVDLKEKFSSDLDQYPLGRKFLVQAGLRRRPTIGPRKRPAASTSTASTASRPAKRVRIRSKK

T2: HPV 31 VLP抗原 (HPV 31, UniProt P17388 1-504)
T2 sequence: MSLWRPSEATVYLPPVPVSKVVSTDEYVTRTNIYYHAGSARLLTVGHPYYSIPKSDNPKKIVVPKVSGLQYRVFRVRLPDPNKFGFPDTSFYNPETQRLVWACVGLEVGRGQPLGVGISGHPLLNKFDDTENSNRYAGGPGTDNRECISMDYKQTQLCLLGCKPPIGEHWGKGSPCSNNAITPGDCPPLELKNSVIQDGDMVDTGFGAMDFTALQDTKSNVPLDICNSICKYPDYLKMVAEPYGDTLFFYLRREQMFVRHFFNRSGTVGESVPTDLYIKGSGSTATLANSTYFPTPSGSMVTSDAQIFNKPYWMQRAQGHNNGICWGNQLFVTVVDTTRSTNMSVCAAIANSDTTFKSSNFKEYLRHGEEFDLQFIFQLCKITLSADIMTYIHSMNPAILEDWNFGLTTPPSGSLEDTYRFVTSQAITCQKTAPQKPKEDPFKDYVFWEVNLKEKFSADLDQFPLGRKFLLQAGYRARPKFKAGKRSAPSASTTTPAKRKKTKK

T3: HPV 52 VLP抗原 (HPV 52, UniProt Q05138 27-529)
T3 sequence: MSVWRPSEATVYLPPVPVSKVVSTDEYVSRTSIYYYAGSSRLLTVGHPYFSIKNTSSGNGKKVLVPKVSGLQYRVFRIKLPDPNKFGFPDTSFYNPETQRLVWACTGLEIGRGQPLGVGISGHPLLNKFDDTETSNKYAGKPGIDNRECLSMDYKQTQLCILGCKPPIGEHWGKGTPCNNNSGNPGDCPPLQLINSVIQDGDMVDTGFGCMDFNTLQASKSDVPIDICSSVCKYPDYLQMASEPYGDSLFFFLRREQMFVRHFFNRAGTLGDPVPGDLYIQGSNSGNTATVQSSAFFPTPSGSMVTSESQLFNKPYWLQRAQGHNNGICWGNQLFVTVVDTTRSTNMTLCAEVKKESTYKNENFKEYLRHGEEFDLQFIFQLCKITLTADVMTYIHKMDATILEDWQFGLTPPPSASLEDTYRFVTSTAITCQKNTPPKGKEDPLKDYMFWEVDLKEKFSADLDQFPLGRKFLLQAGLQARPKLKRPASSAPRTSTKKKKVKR

T4: HPV 58 VLP抗原 (HPV 58, UniProt P26535 27-524)
T4 sequence: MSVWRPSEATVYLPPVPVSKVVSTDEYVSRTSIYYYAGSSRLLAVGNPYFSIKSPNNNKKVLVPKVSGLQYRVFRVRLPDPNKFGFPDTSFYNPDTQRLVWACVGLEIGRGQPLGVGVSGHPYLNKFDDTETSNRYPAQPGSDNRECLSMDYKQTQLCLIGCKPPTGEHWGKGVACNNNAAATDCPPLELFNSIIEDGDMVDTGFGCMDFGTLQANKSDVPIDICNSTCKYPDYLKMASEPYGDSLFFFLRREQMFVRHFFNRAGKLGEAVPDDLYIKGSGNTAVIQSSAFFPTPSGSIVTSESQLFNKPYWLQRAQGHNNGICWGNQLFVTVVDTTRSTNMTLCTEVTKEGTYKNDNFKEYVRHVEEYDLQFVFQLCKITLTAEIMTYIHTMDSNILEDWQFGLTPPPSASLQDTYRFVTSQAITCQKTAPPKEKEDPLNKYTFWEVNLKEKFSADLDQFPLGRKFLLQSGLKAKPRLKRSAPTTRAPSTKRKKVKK

B1: 杂交瘤细胞株7A5(CGMCC NO:45706)分泌的鼠源单克隆抗体 (antibody, V domains shown)
VH: QPGAELVKPGASVKLSCKASGYTFTSYWMHWVKQRPGQGLEWIGEINPSNGHTNYNEKFKSKATLTVDKSSSTAYMQLSSLTSEDSAVYYCAPCYGSSYDYYAMDYWGQGTSVTVSS
VL: DIVLTQSPASLAVSLGQRATISCRASQSVSTSSYSYMHWYQQKPGQPPKLLIKYASNLESGVPARFSGSGSGTDFTLNIHPVEEEDTATYYCQHSWEIPYTFGGGTKLEIK
notes: also called 鼠单抗7A5; 抗体7A5
B2: 杂交瘤细胞株11G1(CGMCC NO:45707)分泌的鼠源单克隆抗体 (antibody, V domains shown)
VH: QVQLQQPGAELVKPGASVKLSCKASGYTFTSYWMHWVKRRPGQGLEWIGEINPSNGLTNYNEKFKSKGTLTVDKSSSAAFMHLSSLTSEDSAVYYCARFHGSDLYAMDYWGQGTSVTVSS
VL: B1 VL
notes: also called 鼠单抗11G1; 抗体11G1

Tests used:
[1] = molecular target: T1, HPV45型衣壳蛋白L1病毒样颗粒(VLP)抗原 (HPV 45型); experiment: sandwich ELISA, rabbit pAb R163 capture 1:500, mAb 1:20000; column 12, antigen amount not stated (only 11 dilutions described)
[2] = molecular target: T1, HPV45型衣壳蛋白L1病毒样颗粒(VLP)抗原 (HPV 45型); experiment: direct ELISA on coated HPV45 VLP, purified antibody titrated; positive if OD > 2.1 x NC
[3] = molecular target: T1, HPV45型衣壳蛋白L1病毒样颗粒(VLP)抗原 (HPV 45型); experiment: sandwich ELISA, rabbit pAb R163 capture 1:500, mAb 1:20000; antigen 13.3 ug/ml, 2.5-fold series, step 2
[4] = molecular target: T1, HPV45型衣壳蛋白L1病毒样颗粒(VLP)抗原 (HPV 45型); experiment: sandwich ELISA, rabbit pAb R163 capture 1:500, mAb 1:20000; antigen 13.3 ug/ml, 2.5-fold series, step 1
HPV 31 VLP抗原 = molecular target: T2, HPV 31 VLP抗原; experiment: direct ELISA on coated VLP antigens
HPV 52 VLP抗原 = molecular target: T3, HPV 52 VLP抗原; experiment: direct ELISA on coated VLP antigens
HPV 58 VLP抗原 = molecular target: T4, HPV 58 VLP抗原; experiment: direct ELISA on coated VLP antigens
[5] = molecular target: T1, HPV45型衣壳蛋白L1病毒样颗粒(VLP)抗原 (HPV 45型); experiment: sandwich ELISA, rabbit pAb R163 capture 1:500, mAb 1:20000; antigen 13.3 ug/ml, 2.5-fold series, step 3
[6] = molecular target: T1, HPV45型衣壳蛋白L1病毒样颗粒(VLP)抗原 (HPV 45型); experiment: sandwich ELISA, rabbit pAb R163 capture 1:500, mAb 1:20000; antigen 13.3 ug/ml, 2.5-fold series, step 6
[7] = molecular target: T1, HPV45型衣壳蛋白L1病毒样颗粒(VLP)抗原 (HPV 45型); experiment: sandwich ELISA, rabbit pAb R163 capture 1:500, mAb 1:20000; antigen 13.3 ug/ml, 2.5-fold series, step 10

Binder | OD [1] | 灵敏度 [2] | OD [3] | OD [4] | binding result (HPV 31 VLP抗原) | binding result (HPV 52 VLP抗原) | binding result (HPV 58 VLP抗原) | OD [5] | OD [6] | OD [7]
B1 | 0.067 OD and 0.064 OD | 0.0005 µg/mL | 3.05 OD and 3 OD | 3.12 OD | no binding | no binding | no binding | 2.9 OD and 2.78 OD | 0.614 OD and 0.773 OD | 0.068 OD and 0.072 OD
B2 | 0.045 OD and 0.05 OD | 0.0005 µg/mL | 3.03 OD and 3.09 OD | 3.1 OD and 3.01 OD | no binding | no binding | no binding | 2.67 OD and 2.65 OD | 0.364 OD and 0.447 OD | 0.062 OD and 0.051 OD
